How the values were obtained:
[1] = target: T1, human CD8αα homodimer, recombinant protein (Acro Biosystems) (human, UniProt P01732 22-182); assay: BLI kinetics, Fab, 37 °C
T1 construct: also called CD8αα antigen; biotinylated CD8α recombinant protein (CDA-H82E3)
Description: (§1) Biolayer interferometry kinetic assays were performed using a GatorBio Gator Plus BLI system. Kinetic buffer containing PBS plus 0.1% Tween 20 and 0.2% BSA was used for calculating the baseline. To measure the binding kinetics of anti-CD8α antibody fragment (Fab), streptavidin-immobilized SA-XT sensors (#160029, Gator Bio) were prehydrated in the kinetic buffer and loaded with […] biotinylated CD8α recombinant protein (CDA-H82E3, Acro Biosystems) at a spin speed of 400 rpm to a threshold response of 10 nm. The sensors were then incubated in the kinetic buffer for 300 s to acquire a baseline measurement prior to each association. […] The antigen-loaded sensors were incubated in the diluted solutions to capture Fab fragments for 300 s to record the association phase. Sensors were finally incubated in the kinetic buffer for 900 s to record the dissociation phase. The spin speed for all steps except the antigen loading step was 1000 rpm. The temperature of the performed assays was either 30° C. or 37° C. during the association and dissociation phases. Sensor data were baseline subtracted, and global curve fitting of the kinetic data from six different analyte concentrations at a 1:1 monovalent binding model was performed using GatorOne software (version v2.10) to determine kinetic rate constants (kₒₙ and koff) and equilibrium dissociation constants (KD) of the analyzed antibodies.
(§2) The binding kinetics of CBD1033 Fab and its parental CBD1017ch Fab against human CD8αα homodimer, human CD8αβ heterodimer, and cynomolgus macaque CD8ααhomodimer were assessed following the same method in BLI evaluation of humanized Fab variants. For evaluating the binding kinetics against cynomolgus macaque CD8αβ heterodimer protein, the antigen protein was directly coupled onto amine-reactive biosensor tips (Gator Bio) following the manufacturer protocol. Briefly, the sensors were activated for 300 s with a mixture of 1-ethyl-3-(3-dimethylaminopropyl)carbodiimide hydrochloride (EDC) (ThermoFisher Scientific) and 10 mM N-Hydroxysulfosuccinimide sodium salt (sulfo-NHS) (Sigma-Aldrich) in water.

[2] = target: T2, human CD8αβ heterodimer, recombinant protein (human, UniProt P01732 22-182; P10966 22-170, limits assumed); assay: BLI kinetics, Fab, 37 °C
T2 sequence (P01732 22-182 limits assumed, chain 1 of 2): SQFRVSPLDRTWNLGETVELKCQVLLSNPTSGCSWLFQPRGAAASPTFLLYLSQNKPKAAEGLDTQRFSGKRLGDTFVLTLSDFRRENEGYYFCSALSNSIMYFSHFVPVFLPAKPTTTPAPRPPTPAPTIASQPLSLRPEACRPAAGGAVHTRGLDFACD
T2 sequence (P10966 22-170 limits assumed, chain 2 of 2): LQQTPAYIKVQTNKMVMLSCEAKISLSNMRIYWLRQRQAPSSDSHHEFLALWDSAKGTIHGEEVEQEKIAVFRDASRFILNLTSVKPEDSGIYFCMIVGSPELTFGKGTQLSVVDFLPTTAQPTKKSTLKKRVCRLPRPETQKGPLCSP
Description: as §1, §2

[3] = target: T1, human CD8αα homodimer, recombinant …; assay: BLI kinetic sensorgram, 1:1 global fit, 30 °C
Description: (§3) The global fitting was performed with a 1:1 fitting model using GatorOne software as described below.
as §1

[4] = target: T3, cynomolgus macaque CD8αα homodimer, recombinant protein (cynomolgus macaque); assay: BLI kinetics, Fab, 37 °C as printed in the table
T3 construct: also called cynomolgus CD8αα homodimer
Description: as §1, §2

[5] = target: T1, human CD8αα homodimer, recombinant …; assay: BLI kinetic sensorgram, 1:1 global fit, 37 °C [CONT'ED]
Description: as §3, §1

[6] = target: T4, cynomolgus macaque CD8αβ heterodimer, recombinant protein (cynomolgus macaque); assay: BLI kinetics, Fab, antigen amine-coupled to the sensor, 30 °C
T4 construct: In BLI coupled directly to amine-reactive sensor tips; also called cynomolgus CD8αβ heterodimer
Description: The binding kinetics of CBD1033 Fab and its parental CBD1017ch Fab against human CD8αα homodimer, human CD8αβ heterodimer, and cynomolgus macaque CD8ααhomodimer were assessed following the same method in BLI evaluation of humanized Fab variants. For evaluating the binding kinetics against cynomolgus macaque CD8αβ heterodimer protein, the antigen protein was directly coupled onto amine-reactive biosensor tips (Gator Bio) following the manufacturer protocol. Briefly, the sensors were activated for 300 s with a mixture of 1-ethyl-3-(3-dimethylaminopropyl)carbodiimide hydrochloride (EDC) (ThermoFisher Scientific) and 10 mM N-Hydroxysulfosuccinimide sodium salt (sulfo-NHS) (Sigma-Aldrich) in water. The cynomolgus macaque CD8αβ protein diluted to […] in 10 mM sodium acetate buffer, pH 6.0, was allowed to be covalently captured for 300 s to an approximate threshold of 5 nm, and the sensors were subsequently deactivated with 1 M ethanolamine (ETA) (Sigma-Aldrich) solution, pH 8.5, for 300 s. The sensors were then rinsed in the kinetic buffer for 600 s. The rinse step was repeated for an additional 120 s for baseline calculation prior to the measurements of the binding kinetics. The antibody fragment was diluted into kinetic buffer via 3-fold dilution at concentrations ranging from 1000 nM to 1.37 nM. As above, the antigen-captured sensors were incubated in the diluted solutions to capture the Fab fragments for 1200 s to record the association phase. Sensors were subsequently incubated in the kinetic buffer for 1200 s to record the dissociation phase. The shaking speed for all steps was 1000 rpm and the temperature of the performed assays were at 30° C. The kinetic parameters were determined with 1:1 monovalent (Langmuir) binding model using the previous method.

[7] = target: T1, human CD8αα homodimer, recombinant …; assay: BLI kinetic assay (told in the description; antigen not given)
Description: as §1, §2

[8] = target: T2, human CD8αβ heterodimer, recombinant …; assay: as above
Description: as §1, §2

[9] = target: T3, cynomolgus macaque CD8αα homodimer, …; assay: as above
Description: as §1, §2

[10] = target: T4, cynomolgus macaque CD8αβ heterodimer, …; assay: as above
Description: as §1, §2

[11] = target: T1, human CD8αα homodimer, recombinant …; assay: BLI kinetic rate analysis, Fab fragment (temperature not given)
Description: as §1

[12] = target: T1, human CD8αα homodimer, recombinant …; assay: BLI kinetics, F(ab) on biotinylated CD8α (SA-XT sensor), 1:1 fit, 30 °C
Description: as §1

[13] = target: T1, human CD8αα homodimer, recombinant …; assay: BLI kinetics, F(ab) on biotinylated CD8α (SA-XT sensor), 1:1 fit, 37 °C [CONT'ED]
Description: as §1

[14] = target: T3, cynomolgus macaque CD8αα homodimer, …; assay: BLI kinetic sensorgram, 1:1 global fit (legend: 30 °C; FIG. 2I prints 37 °C for the same constants)
Description: as §1, §2

T1 sequence (P01732 22-182 limits assumed): as the sequence (P01732 22-182 limits assumed, chain 1 of 2) above

Kd [1]: 5.5 nM
koff [1]: 0.000194 s⁻¹
kon [1]: 35400 M⁻¹ s⁻¹
Kd [2]: 26.2 nM
koff [2]: 0.000653 s⁻¹
kon [2]: 25000 M⁻¹ s⁻¹
Kd [3]: 3.25 nM
koff [3]: 0.000145 s⁻¹
kon [3]: 44700 M⁻¹ s⁻¹
Kd [4]: 10.4 nM
koff [4]: 0.000264 s⁻¹
kon [4]: 25400 M⁻¹ s⁻¹
Kd [5]: 5.5 nM
koff [5]: 0.000194 s⁻¹
kon [5]: 35400 M⁻¹ s⁻¹
Kd [6]: 119 nM
koff [6]: 0.00199 s⁻¹
kon [6]: 16700 M⁻¹ s⁻¹
fold weaker binding affinity than CBD1017ch F(ab) [7]: 5 fold
fold weaker binding affinity than CBD1017ch F(ab) [8]: 5 fold
fold weaker binding affinity than CBD1017ch F(ab) [9]: 5 fold
fold weaker binding affinity than CBD1017ch F(ab) [10]: 5 fold
Kd [11]: 5.5 nM
koff [11]: 0.000195 s⁻¹
kon [11]: 35400 M⁻¹ s⁻¹
Kd [12]: 3.25 nM
koff [12]: 0.000145 s⁻¹
kon [12]: 44700 M⁻¹ s⁻¹
Kd [13]: 5.5 nM
koff [13]: 0.000194 s⁻¹
kon [13]: 35400 M⁻¹ s⁻¹
Kd [14]: 10.4 nM
koff [14]: 0.000264 s⁻¹
kon [14]: 25400 M⁻¹ s⁻¹
B1: CBD1033 Fab (h1017-H2 / h1017-L2) (Fab, V domains shown)
VH: QVQLVQSGAEVKKPGASVKVSCKASRYTFTDYNLHWVRQAPGQGLEWMGFIYPYNGGTGYAQKFQGRVTMTVDTSTSTAYMELSSLRSEDTAVYYCARDHRYNEGVSFDYWGQGTTVTVSS
VL: DIQLTQSPSSLSASVGDRATITCRASESVDGFGNSFMNWYQQKPGKAPKLLIYLASNLESGVPSRFSGSGSGTDFTLTISSVQPEDFATYYCQQNNEDPYTFGQGTKLEIK
notes: Expressed as F(ab) fragment; also called CBD1033 Fab molecule
